Experimental data as given in PMC11201974, “Structural Insights into the Rrp4 Subunit from the Crystal Structure of the Thermoplasma acidophilum Exosome” (Biomolecules, 2024).

T1: Thermoplasma acidophilum exosome subunit Rrp41 (TaciRrp41) (Thermoplasma acidophilum, UniProt Q9HIP2 1-248)
T1 construct: Exosome complex component Rrp41 of Thermoplasma acidophilum; Single subunit (pET22b) used as ligand in MST; in the crystals the chain came from the pETDuet-1 co-expression with TaciRrp42; source: E. coli BL21 (DE3), from pET22b alone or from pETDuet-1 co-expressed with TaciRrp42; purified (Ni-NTA, Superdex 200)
T1 sequence: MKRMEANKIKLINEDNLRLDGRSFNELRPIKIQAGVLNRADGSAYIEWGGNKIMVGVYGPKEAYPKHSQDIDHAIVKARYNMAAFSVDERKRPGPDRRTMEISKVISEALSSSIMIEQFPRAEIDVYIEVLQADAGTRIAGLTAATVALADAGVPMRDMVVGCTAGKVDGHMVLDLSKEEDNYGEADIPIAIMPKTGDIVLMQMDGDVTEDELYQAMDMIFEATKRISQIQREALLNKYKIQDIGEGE

T2: TaciRrp41:42 complex (Thermoplasma acidophilum exosome core, Rrp41 with truncated Rrp42) (Thermoplasma acidophilum, UniProt Q9HIP2 1-248; Q9HIP1 20-240)
T2 construct: Exosome complex component Rrp41 of Thermoplasma acidophilum; as the chain of m1; Exosome complex component Rrp42 of Thermoplasma acidophilum, truncated core domain of residues 20-240; as the chain of m2; The complex was purified on Ni-NTA and labelled with the His-tag labelling kit (RED-tris-NTA) for MST; the oligomeric state in the MST sample was not measured; also called TaciRrp41/cd-TaciRrp42; …
T2 sequence 1: T1 sequence
T2 sequence 2: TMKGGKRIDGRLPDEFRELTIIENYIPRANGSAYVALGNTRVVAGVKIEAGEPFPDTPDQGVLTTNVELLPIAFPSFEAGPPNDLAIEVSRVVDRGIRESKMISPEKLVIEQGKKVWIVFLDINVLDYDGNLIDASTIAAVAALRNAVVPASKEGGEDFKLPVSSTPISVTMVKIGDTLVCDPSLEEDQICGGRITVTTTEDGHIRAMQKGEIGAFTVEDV

B1: Thermoplasma acidophilum exosome subunit Rrp42, truncated core domain, residues 20-240 (TaciRrp42) (domain or fragment, UniProt Q9HIP1 20-240, looked up)
chain: T2 sequence 2
modifications: RED-tris-NTA fluorescent dye on the His tag (in MST)
notes: Exosome complex component Rrp42 of Thermoplasma acidophilum, truncated Rrp42 corresponding to the core domain composed of residues 20-240; Single subunit (pET28a) was the labelled target in MST; in the crystals the chain came from the pETDuet-1 co-expression; also called cd-TaciRrp42; source: E. coli BL21 (DE3), from pET28a alone or from pETDuet-1 co-expressed with TaciRrp41; purified (Ni-NTA, …)
B2: Thermoplasma acidophilum exosome subunit Rrp4 (TaciRrp4) (natural protein, UniProt Q9HIP3 1-236, looked up)
chain: MYQLGDVKKIVLPGDPIEVQGKMRNGVYRGQDNRYYSEYFGTLQVNDQFVDVVPFSGQYIPRKGDKVIGKVIEVGPSTWTVDINSPYFAMLHMNDTPWRMSSGDLKRYLNAGDYIYAKIMSVNEIKESWLTLKEPGLKKLEGGHMVLIHASRVPRVIGKGGGMVNMVKELTATRIIIGQNGLIWIDGPIEGVTMAIAAIEMIEREAHTEGLTARVESFLKELKGEKDGSQQNKADQ
notes: Exosome complex component Rrp4 of Thermoplasma acidophilum (N-terminal domain, S1 domain, KH domain); also called TaciRrp4-capping protein; source: E. coli Rosetta, from pET22b; purified (Ni-NTA, Superdex 200)

Assays:
Experiment in all cases: MST; target (TaciRrp42 or TaciRrp41:42) labelled by RED-tris-NTA His-tag kit, 50 nM; ligand in sixteen serial dilutions (TaciRrp41 550 μM to 16.6 nM; TaciRrp4 200 μM to 6.1 nM); 30 min incubation; LED power and MST power 40%; triplicate
Conditions in all cases: both partners purified
[1] = biological target: T1, Thermoplasma acidophilum exosome …
[2] = biological target: B2
[3] = biological target: T2, TaciRrp41:42 complex (Thermoplasma …)

Binder | Kd [1] | Kd [2] | Kd [3]
B1 | 169 µM | 4.82 µM | –
B2 | – | – | 200 µM
